Data reported in US20190142860A1, “NUCLEIC ACID BASED TIA-1 INHIBITORS” (Aquinnah Pharmaceuticals, Inc., priority 2015, published 2019).
“Also recorded” adds a separate entry of the source. Residues, ends and D or L forms follow the SMILES beside them. *: point of attachment. Cbz = O=C(OCc1ccccc1)*

Experiments:
[1] = system: tau-induced TIA1+ SGs in HT22 cells; experiment: PKR / PERK inhibitors on tau-mediated SG formation; format: cell-based, mouse; conditions: TIA1 ± WT tau, 24 hrs, C16 1 μM, GSK2606414 50 nM
Procedure: The eukaryotic translation initiation factor eIF2α is regulated by phosphorylation. […] SGs were induced by transfection with TIA1±WT tau. After 24 hrs the cells were treated with inhibitors of PKR (C16, 1 μM, Sigma) or PERK (GSK2606414, 50 nM, EMD/Millipore), and then SG number was quantified after 24 hrs.

tau = experiment: Tau levels with TIA1 over-expression under proteasome or autophagy inhibition, immunoblot in HT22 cells; format: cell-based, mouse; conditions: overnight, MG132 5 μM, chloroquine 50 μM
Procedure: Immunoblots were preformed using gradient PAGE on a 15-well 4-12% Bis-Tris gel (Invitrogen). Blocking was done in 5% milk for lhr at RT. Primary antibody incubation was at 4° C. overnight with 1:7,500 mouse monoclonal Tau13, 1:500 mouse monoclonal PHF1, 1:500 goat polyclonal TIA1 (Santa Cruz), 1:500 mouse monoclonal synaptophysin (Santa Cruz), 1:1,000 mouse monoclonal PSD-95 (NeuroMab), 1:1,000 rabbit polyclonal caspase-3 or cleaved caspase 3 (Cell Signaling), or 1:10,000 mouse monoclonal actin (Millipore) in PBS. Secondary antibody was incubated in 5% milk for 1 hr at RT. Developing was done using SuperSignal West Pico Substrate (Thermo).

[2] = system: granules positive for TIA1 and phospho-tau (P-S396/404, PHF1); experiment: Tau kinase inhibitor study: TIA1+ SGs and PHF1+ tau granules; format: cell-based, mouse; conditions: HT22 cells, TIA1 and WT tau, 24 hrs; for formation of granules positive for TIA1 and phospho-tau (SGs and tau granules): XXVI 20 μM, CDK2/5 inhibitor 5 μM, SB203580 20 μM, 39621 20 μM, PP2 20 nM
[3] = molecular target: Nucleolysin TIA-1 (endogenous mouse TIA1) (mouse) (UniProt P52912); experiment: TIA1 IP-MS, tau KO 1 cortex
[4] = molecular target: Nucleolysin TIA-1 (endogenous mouse TIA1) (mouse) (UniProt P52912); experiment: TIA1 IP-MS, tau KO 2 cortex
[5] = molecular target: Nucleolysin TIA-1 (endogenous mouse TIA1) (mouse) (UniProt P52912); experiment: TIA1 IP-MS, tau KO 3 cortex
[6] = molecular target: Nucleolysin TIA-1 (endogenous mouse TIA1) (mouse) (UniProt P52912); experiment: TIA1 IP-MS, WT2 cortex
[7] = molecular target: Nucleolysin TIA-1 (endogenous mouse TIA1) (mouse) (UniProt P52912); experiment: TIA1 IP-MS, WT3 cortex
[8] = molecular target: Nucleolysin TIA-1 (endogenous mouse TIA1) (mouse) (UniProt P52912); experiment: TIA1 IP-MS, WT1 cortex

Sequence of UniProt P52912 (P52912 whole entry): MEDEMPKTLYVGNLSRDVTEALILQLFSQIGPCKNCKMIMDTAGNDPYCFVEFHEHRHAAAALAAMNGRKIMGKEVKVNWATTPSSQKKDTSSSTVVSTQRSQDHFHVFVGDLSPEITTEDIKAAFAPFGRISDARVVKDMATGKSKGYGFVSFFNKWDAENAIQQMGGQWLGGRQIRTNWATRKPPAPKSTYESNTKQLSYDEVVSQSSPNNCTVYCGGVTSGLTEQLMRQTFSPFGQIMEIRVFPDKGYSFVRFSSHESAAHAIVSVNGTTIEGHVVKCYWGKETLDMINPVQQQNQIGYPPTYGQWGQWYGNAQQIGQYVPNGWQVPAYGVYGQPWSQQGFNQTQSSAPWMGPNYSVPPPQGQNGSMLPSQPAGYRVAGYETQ

total ion current (normalized to TIA1 = 1000) [3] | total ion current (normalized to TIA1 = 1000) [4] | total ion current (normalized to TIA1 = 1000) [5] | total ion current (normalized to TIA1 = 1000) [6] | total ion current (normalized to TIA1 = 1000) [7] | total ion current (normalized to TIA1 = 1000) [8] | Compound | tau-mediated SG formation (SG number) [1] | decreases in tau associated with TIA1 over-expression (tau) | formation of granules positive for TIA1 and phospho-tau (SGs and tau granules) [2] | SG inhibition, comparison among the kinase inhibitors [2]
 |  |  |  |  |  | O=C1Nc2ccc3ncsc3c2/C1=C/c1cnc[nH]1 [C16] | strongly inhibited; also recorded: Inhibition |  |  | 
 |  |  |  |  |  | Cn1cc(-c2ccc3c(c2)CCN3C(=O)Cc2cccc(C(F)(F)F)c2)c2c(N)ncnc21 [GSK2606414] | strongly inhibited; also recorded: Inhibition |  |  | 
 |  |  |  |  |  | CC(C)C[C@@H](C=O)NC(=O)[C@H](CC(C)C)NC(=O)[C@H](CC(C)C)NC(=O)OCc1ccccc1 [MG132] (Cbz-Leu-Leu-Leu-aldehyde) |  | neither MG132 nor chloroquine prevented decreases in tau |  | 
 |  |  |  |  |  | CC(C)(C)n1nc(-c2ccc(Cl)cc2)c2c(N)ncnc21 [PP2] |  |  | inhibition of SGs and tau granules | 
 |  |  |  |  |  | C[S+]([O-])c1ccc(-c2nc(-c3ccncc3)c(-c3ccc(F)cc3)[nH]2)cc1 (stereo not drawn) [SB203580] |  |  | Inhibition | strongest SG inhibition
 |  |  |  |  |  | Cn1cc(-c2[nH][nH]c(=O)c2-c2cn(C)c3ccccc23)c2ccccc21 [XXVI] |  |  | inhibition of SGs and tau granules | 
 |  |  |  |  |  | CCN(CC)CCCC(C)Nc1ccnc2cc(Cl)ccc12 (stereo not drawn) [chloroquine] |  | neither MG132 nor chloroquine prevented decreases in tau |  | 
0 | 26.9 | 0 | 204 | 54.8 | 0 | Succinyl-CoA ligase [ADP/GDP-forming] subunit alpha, mitochondrial (from UniProt Q9WUM5 35-346) |  |  |  | 
0 | 138 | 0 | 165 | 0 | 0 | Synaptosomal-associated protein 25 (from UniProt P60879 1-206) |  |  |  | 
0 | 26.9 | 0 | 99.7 | 0 | 0 | Syntaxin-1B (from UniProt P61264 1-288) |  |  |  | 
0 | 0 | 0 | 75.2 | 57.7 | 0 | Thy-1 membrane glycoprotein (from UniProt P01831 20-131) |  |  |  | 
0 | 39.7 | 0 | 264 | 269 | 0 | Transcriptional activator protein Pur-alpha (from UniProt P42669 2-321) |  |  |  | 
0 | 33.3 | 0 | 70.9 | 0 | 0 | Transformer-2 protein homolog beta (from UniProt P62996 2-288) |  |  |  | 
0 | 0 | 0 | 106 | 0 | 0 | Tripartite motif-containing protein 2 (from UniProt Q9ESN6 1-744) |  |  |  | 
0 | 40.4 | 0 | 299 | 220 | 0 | Tubulin polymerization-promoting protein (from UniProt Q7TQD2 1-218) |  |  |  | 
0 | 0 | 0 | 0 | 0 | 6.22 | U1 small nuclear ribonucleoprotein 70 kDa (from UniProt Q62376 2-448) |  |  |  | 
0 | 16.9 | 0 | 80.5 | 45.6 | 0 | Ubiquitin thioesterase OTUB1 (from UniProt Q7TQI3 2-271) |  |  |  | 
0 | 214 | 0 | 319 | 71.9 | 0 | V-type proton ATPase catalytic subunit A (from UniProt P50516 1-617) |  |  |  | 
0 | 30.3 | 0 | 101 | 57.6 | 0 | V-type proton ATPase subunit H (from UniProt Q8BVE3 1-483) |  |  |  | 
130 | 64.5 | 0 | 141 | 0 | 0 | Vesicular glutamate transporter 1 (from UniProt Q3TXX4 1-560) |  |  |  | 
 |  |  |  |  |  | alkylbenzyldimethyammonium chloride |  |  | inhibition of SGs and tau granules | 
